{"source": "patent US20240287172A1", "about": "(SCIRHOM, published 2024)", "binders": {"B1": {"name": "antibody 5 (antibody, V domains shown)", "VH": "QVTLKESGPGILQPSQTLSLTCSFSGFSLSTFGMGVGWIRQPSGKGLEWLAHIWWDDEKYYNSALKSRLTISKATSKNQAFLKIANVDTADTATYYCARISNYGSNYWYFNVWGTGTTVTVSS", "VL": "QVVLTQSPALMSASPGEKVTMTCSAGSSVSCMYWYQQKPGSSPRVLIYDTSNLASGVPARFTGSGSGTSYSLTISRMEAEDAASYYCQQWNSYPLTFGAGTKLELK", "notes": "mouse IgG, kappa light chain; also called clone #5; purified antibody 5"}, "B2": {"name": "antibody 44 (antibody, V domains shown)", "VH": "B1 VH with G44E, E58D, S63P, A74D, A80I, A85T, D91E, A98S, S101G, N111D", "VL": "QIVLTQSPAVMSASPGEKVTMTCTASSSVYYMYWYQQTPGSSPRLLIYDTSNLASGVPVRFSGSGSGTSYSLTISRMEAEDAATYYCQQWNTYPLTFGAGTKLELK", "notes": "mouse IgG, kappa light chain; also called clone #44; purified antibody 44"}, "B3": {"name": "antibody 42 (antibody, V domains shown)", "VH": "B1 VH with F24L, M34R, S63P, A74D, A80V, K83R, S101Q, N111D", "VL": "LIVLTQSPAIMSASPGEKVTMTCGATSRISYMFWYQQKPGSSPRVLIYDTSNLASGVPVRFSGSGSGTSYSLTISRVEAEDVATYYCQQWNSYPLTFGAGTKLELK", "notes": "mouse IgG, kappa light chain; also called clone #42; purified antibody 42"}, "B4": {"name": "antibody 43 (antibody, V domains shown)", "VH": "B1 VH with T3A, P42S, H52N, E58D, S63P, A74D, T75A, S101G, N111D", "VL": "B3 VL with L1Q, K18R, G24S, T26N, F33Y, V45L, V77M, V82A, Y86N, N91S", "notes": "mouse IgG, kappa light chain; also called clone #43; purified antibody 43"}, "B5": {"name": "antibody 22 (antibody, V domains shown)", "VH": "B1 VH with A80V", "VL": "B1 VL with C31Y, S84T", "notes": "mouse IgG, kappa light chain; also called clone #22; purified antibody 22"}, "B6": {"name": "antibody 48 (antibody, V domains shown)", "VH": "QVQLQQSGTELVRPGTSVKVSCKASGYAFTNYLIEWVKQRPGQGLEWIGVINPGSGFTKYNEKFKGKATLTADKSSSTVYMHLSSLTSEDSAVYFCARGLYRAMDYWGQGTSVTVSS", "VL": "DIQMTQSPASQSASLGESVTITCLASQTIATWLAWYQQKPGKSPQLLIYGATTLADGVPSRFSGGGSGTKFSFKISSLQAEDFVSYYCQQLYSTPYTFGGGTKLEIK", "notes": "mouse IgG, kappa light chain; also called clone #48; purified antibody 48"}, "B7": {"name": "antibody 50 (antibody, V domains shown)", "VH": "B6 VH with T9A, T16A, T30S, V79A, H82Q", "VL": "B6 VL with A30G, G50A, T52A, T53S, S85N, L91I", "notes": "mouse IgG, kappa light chain; also called clone #50; purified antibody 50"}, "B8": {"name": "antibody 34 (antibody, V domains shown)", "VH": "QVTLKESGPGILQPSQTLSLTCSFSGFSLSTFSLGVGWIRQSSGKGLEWLAHIWWDDEKYYNPALKSRLTISKDTSKNQVFLKIANVDAADTATYYCARAYYSKSYYALDYWGQGTSVTVSS", "VL": "DIQMTQSPSSLSASLGERVSLTCRASQEISGYLSWLQQKPDGTIKRLIYAASTLDSGVPKRFSGSRSGSDYSLAISSLESEDFADYYCLQYANFPFTFGSGTKLEIK", "notes": "mouse IgG, kappa light chain; also called clone #34; purified antibody 34"}, "B9": {"name": "antibody 16 (antibody, V domains shown)", "VH": "QVTLKESGPGILQPSQTLSLTCSFSGFSLSTFALGVGWIRQPSGRGLEWLAHIWWDDDKYYNPALKSRLTISKDTSKNHVFLKIANVDTADTATYYCARITTYYYGMDYWGQGTSVTVSS", "VL": "DIVLSQSPATLSVTPGDSVSLFCRASQSIGNHLHWYQQESHASPRLLIKYASQSISGIPSRFSGSGSGTDFTLSINSVETEDFGMYFCQQSYNWPLTFGAGTKLELK", "notes": "mouse IgG, kappa light chain; also called clone #16; purified antibody 16"}, "B10": {"name": "antibody 3 (antibody, V domains shown)", "VH": "QVTLKESGPGILQPSQTLSLTCSFSGFSLTTFAMGIGWVRQPSGKGLEWLAHIWWDGEKYNNPVLKSRLTISKDTSKNQVFLRIANVDTPDTATYYCARISSIYYIIDNWGQGTSVTVSS", "VL": "B9 VL with S5T, D17H, F22S, G30S, H32N, Q38K, E39K, A42E, A51V", "notes": "mouse IgG, kappa light chain; also called clone #3; purified antibody 3"}}, "note": "Changes are numbered by the printed parent chain.", "data": [{"molecular_target": "T1, miR2-FL-WT-T7 (mouse, UniProt Q80WQ6 1-827)", "T1 construct": "on MEF-DKO cells", "T1 sequence": "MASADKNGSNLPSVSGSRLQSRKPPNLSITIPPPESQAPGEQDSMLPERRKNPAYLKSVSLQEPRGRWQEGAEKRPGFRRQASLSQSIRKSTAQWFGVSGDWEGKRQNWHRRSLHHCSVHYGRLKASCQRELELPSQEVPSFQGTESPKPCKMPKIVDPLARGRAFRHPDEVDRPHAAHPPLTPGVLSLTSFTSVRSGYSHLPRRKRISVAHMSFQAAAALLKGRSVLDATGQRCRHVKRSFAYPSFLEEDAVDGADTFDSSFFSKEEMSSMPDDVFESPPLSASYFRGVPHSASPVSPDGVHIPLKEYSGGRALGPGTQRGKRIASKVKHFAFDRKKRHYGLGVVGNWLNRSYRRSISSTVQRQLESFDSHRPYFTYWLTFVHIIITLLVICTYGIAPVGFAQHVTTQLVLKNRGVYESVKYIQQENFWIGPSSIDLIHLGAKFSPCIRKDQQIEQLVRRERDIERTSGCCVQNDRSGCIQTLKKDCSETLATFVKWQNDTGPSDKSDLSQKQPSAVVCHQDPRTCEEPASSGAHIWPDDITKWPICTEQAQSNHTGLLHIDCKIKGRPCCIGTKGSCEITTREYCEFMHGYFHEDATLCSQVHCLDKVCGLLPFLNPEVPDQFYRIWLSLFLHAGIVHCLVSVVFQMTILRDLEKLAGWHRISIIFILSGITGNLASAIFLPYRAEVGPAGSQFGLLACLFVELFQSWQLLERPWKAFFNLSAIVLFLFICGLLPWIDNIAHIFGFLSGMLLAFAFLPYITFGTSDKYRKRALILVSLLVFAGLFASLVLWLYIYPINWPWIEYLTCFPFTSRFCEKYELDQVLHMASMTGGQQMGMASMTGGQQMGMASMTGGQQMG", "assay": "FACS, MEF-DKO cells, 3 µg/ml", "from_the_text": "(§1) In brief, immortalized MEF-DKO-hiR2-FL-WT-T7 cells, MEF-DKO-miR2-FL-WT-T7 cells and MEF-DKO-hiR2-FL-R441K-T7, MEF-DKO-hiR2-FL-K443R-T7, MEF-DKO-hiR2-FL-V459I-T7, MEF-DKO-hiR2-FL-G481Q-T7, MEF-DKO-hiR2-FL-L488R-T7, MEF-DKO-hiR2-FL-L493I-T7, MEF-DKO-hiR2-FL-D496T-T7, MEF-DKO-hiR2-FL-H505R-T7, MEF-DKO-hiR2-FL-Q512L-T7, MEF-DKO-hiR2-FL- R513K-T7, MEF-DKO-hiR2-FL-D528N-T7, MEF-DKO-hiR2-FL-P533-T7, MEF-DKO-hiR2-FL-M534S-T7, MEF-DKO-hiR2-FL-G540S-T7, MEF-DKO-hiR2-FL-R543Q-T7, MEF-DKO-hiR2-FL-T544P-T7, MEF-DKO-hiR2-FL-G546A-T7, MEF-DKO-hiR2-FL-A547V-T7, MEF-DKO-hiR2-FL-R582Q-T7, MEF-DKO-hiR2-FL-F588L-T7, MEF-DKO-hiR2-FL-M591I-T7, MEF-DKO-hiR2-FL-E594K-T7, MEF-DKO-hiR2-FL-E626D-T7, MEF-DKO-hiR2-FL-L657I-T7, and MEF-DKO-hiR2-FL-H835Y-T7 cells were harvested with 10 mM EDTA in PBS, washed and resuspended in FACS buffer (PBS, 3% FBS, 0.05% sodium azide), and seeded in Nunc U-bottom 96-well plates (Thermo Fisher Scientific, USA) at approximately 3×10⁵ cells per well.\n(§2) To pellet cells and remove supernatants, the plates were centrifuged at 1,500 rpm and 4° C. for 3 minutes. For primary staining, cells were resuspended in 100 μl per well of either FACS buffer alone (controls) or the purified antibodies 3, 5, 16, 22, 34, 42, 43, 44, 48, and 50 of the invention at 3 μg/ml FACS buffer and incubated on ice for 1 hour. Afterwards, plates were centrifuged at 1,500 rpm and 4° C. for 3 minutes and washed twice with 200 μl per well of FACS buffer. For secondary staining, cells were spun down and resuspended in 100 μl per well of PE-conjugated goat anti-mouse IgG F(ab′)2 detection fragment (Dianova, Germany) diluted 1:100 in FACS buffer. Protected from light, the cell suspensions were incubated on ice for 1 hour. Plates were then centrifuged at 1,500 rpm and 4° C. for 3 minutes and washed three times with 200 μl per well of FACS buffer. Finally, cells were resuspended in 150 μl per well of FACS buffer and analyzed using a BD Accuri™ C6 Plus flow cytometer (Becton Dickinson, Germany).", "units": {"loss of binding vs wild type": "%"}, "values": [{"binder": "B1", "loss of binding vs wild type": "≥ 95"}, {"binder": "B2", "loss of binding vs wild type": "≥ 95"}, {"binder": "B3", "loss of binding vs wild type": "≥ 95"}, {"binder": "B4", "loss of binding vs wild type": "≥ 95"}, {"binder": "B5", "loss of binding vs wild type": "≥ 95"}, {"binder": "B6", "loss of binding vs wild type": "≥ 60"}, {"binder": "B7", "loss of binding vs wild type": "≥ 95"}, {"binder": "B8", "loss of binding vs wild type": "≥ 95"}, {"binder": "B9", "loss of binding vs wild type": "≥ 95"}, {"binder": "B10", "loss of binding vs wild type": "≥ 95"}]}, {"molecular_target": "T2, hiR2-FL-T544P-T7 (human, UniProt Q6PJF5 1-856)", "T2 sequence": "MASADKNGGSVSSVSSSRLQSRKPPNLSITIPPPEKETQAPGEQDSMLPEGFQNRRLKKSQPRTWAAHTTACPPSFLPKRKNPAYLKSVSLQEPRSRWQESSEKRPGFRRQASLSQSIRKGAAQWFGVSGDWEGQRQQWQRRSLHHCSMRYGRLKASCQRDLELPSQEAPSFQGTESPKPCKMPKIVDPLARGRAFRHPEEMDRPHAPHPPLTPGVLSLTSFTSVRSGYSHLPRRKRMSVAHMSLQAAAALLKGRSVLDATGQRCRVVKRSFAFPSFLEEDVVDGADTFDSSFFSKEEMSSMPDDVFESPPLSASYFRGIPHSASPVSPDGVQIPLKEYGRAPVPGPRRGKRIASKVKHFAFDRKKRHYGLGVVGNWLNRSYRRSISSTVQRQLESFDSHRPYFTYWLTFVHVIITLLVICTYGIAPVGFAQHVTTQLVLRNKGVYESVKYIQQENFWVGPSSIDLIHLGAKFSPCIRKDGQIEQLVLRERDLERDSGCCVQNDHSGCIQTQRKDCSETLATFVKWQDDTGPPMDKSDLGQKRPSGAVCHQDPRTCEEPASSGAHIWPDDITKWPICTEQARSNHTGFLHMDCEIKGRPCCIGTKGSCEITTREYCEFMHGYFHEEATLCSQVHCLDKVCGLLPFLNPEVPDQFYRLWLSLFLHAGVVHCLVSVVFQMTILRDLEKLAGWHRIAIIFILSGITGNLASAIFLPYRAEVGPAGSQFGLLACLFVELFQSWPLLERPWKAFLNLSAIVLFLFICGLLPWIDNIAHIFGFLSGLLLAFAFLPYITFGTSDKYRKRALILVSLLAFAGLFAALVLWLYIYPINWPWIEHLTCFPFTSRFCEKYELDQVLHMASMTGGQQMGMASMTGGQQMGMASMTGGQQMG", "assay": "FACS, MEF-DKO cells, 3 µg/ml", "from_the_text": "as §1, §2", "units": {"loss of binding vs wild type": "%"}, "values": [{"binder": "B1", "loss of binding vs wild type": "≥ 60"}, {"binder": "B2", "loss of binding vs wild type": "≥ 30"}, {"binder": "B3", "loss of binding vs wild type": "≥ 60"}, {"binder": "B4", "loss of binding vs wild type": "≥ 60"}, {"binder": "B5", "loss of binding vs wild type": "≥ 30"}, {"binder": "B6", "loss of binding vs wild type": "≥ 30"}, {"binder": "B7", "loss of binding vs wild type": "≥ 30"}, {"binder": "B8", "loss of binding vs wild type": "≥ 60"}, {"binder": "B10", "loss of binding vs wild type": "≥ 60"}]}]}
